Four compounds from article PMC7141177 (Journal of molecular biology, 2018) can be followed below.

Assay [1] concerns the target AKMT-ΔNTD (Toxoplasma gondii, UniProt B9Q0K5). In words: isothermal titration calorimetry. Format: binding.
Assay [2] concerns the target AKMT-ΔNTD (aa289–709) (Toxoplasma gondii). Briefly: SEC-MALS.
Assay [3] has as its target AKMT-ΔNTD-short (aa309–709) (Toxoplasma gondii). Briefly: SEC-MALS.
The target in assay [4] is full-length T. gondii apical complex lysine (K) methyltransferase (AKMT, aa1–709) (Toxoplasma gondii). Briefly: SEC-MALS.

In the case of `Nc1ncnc2c1ncn2[C@@H]1O[C@H](C[C@@H](N)CC[C@H](N)C(=O)O)[C@@H](O)[C@H]1O` [sinefungin], the equilibrium dissociation constant (Kd) in assay [1] stood at 260 nM.
As to “AKMT-ΔNTD (aa289–709) (domain or fragment)”, the stoichiometry N in assay [2] came out at 2.
Regarding “AKMT-ΔNTD-short (aa309–709) (domain or fragment)”, in assay [3], the stoichiometry N was found to be 2.
In turn, “full-length T. gondii apical complex lysine (K) methyltransferase (AKMT, aa1–709) (enzyme)” returned a stoichiometry N in assay [4] of 2.
